# T1: FcgRIIb (human, UniProt P31994)
# T1 chain: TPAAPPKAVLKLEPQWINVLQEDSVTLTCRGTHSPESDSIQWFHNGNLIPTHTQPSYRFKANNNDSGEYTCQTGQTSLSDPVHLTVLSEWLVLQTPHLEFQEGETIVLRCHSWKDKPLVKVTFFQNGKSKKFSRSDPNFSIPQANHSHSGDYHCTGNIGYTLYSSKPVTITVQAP
# T2: FcgRIIaR (human, UniProt P12318)
# T2 chain: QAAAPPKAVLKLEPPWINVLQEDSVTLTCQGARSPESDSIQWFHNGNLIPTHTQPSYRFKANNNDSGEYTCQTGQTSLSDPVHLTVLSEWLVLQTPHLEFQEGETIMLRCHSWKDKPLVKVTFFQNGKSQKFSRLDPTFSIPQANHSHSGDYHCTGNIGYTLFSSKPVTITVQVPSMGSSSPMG
# T3: FcgRIa (human, UniProt P12314)
# T3 chain: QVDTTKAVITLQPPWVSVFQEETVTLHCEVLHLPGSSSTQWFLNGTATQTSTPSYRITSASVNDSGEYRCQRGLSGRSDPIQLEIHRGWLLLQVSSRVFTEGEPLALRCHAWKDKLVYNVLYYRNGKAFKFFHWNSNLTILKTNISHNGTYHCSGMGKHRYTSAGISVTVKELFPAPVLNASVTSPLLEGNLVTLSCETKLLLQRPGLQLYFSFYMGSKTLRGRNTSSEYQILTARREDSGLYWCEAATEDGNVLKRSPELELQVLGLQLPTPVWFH
# Legend:
# Assay in all cases: SPR
# FcgRIIb = molecular target: T1, FcgRIIb
# FcgRIIaR = molecular target: T2, FcgRIIaR
# FcgRIa = molecular target: T3, FcgRIa
Kd (FcgRIIb),Kd (FcgRIIaR),Kd (FcgRIa),Binder
380 nM,–,0.31 nM,IL6R-BP260/IL6R-L (antibody) chain 1: QVQLQESGPGLVKPSETLSLTCAVSGHSISHDHAWSWVRQPPGEGLEWIGFISYSGITNYNPSLQGRVTISRDNSKNTLYLQMNSLRAEDTAVYYCARSLARTTAMDYWGEGTLVTVSSASTKGPEVFPLAPSSKSTSGGTAALGCLVKDYFPEPVTVSWNSGALTSGVHTFPAVLQSSGLYSLSSVVTVPSSSLGTQTYICNVNHKPSNTKVDKKVEPKSCDKTHTCPPCPAPDLLGDDSVFLFPPKPKDTLMISRTPEVTCVVVDVSDEDGEVKFNWYVDGVEVHNAKTKPREEQDNSTYRVVSVLTVLHQDWLNGKEYKCKVSNKALPRPIEKTISKAKGQPREPQVYTLPPSRDELTKNQVSLTCLVKGFYPSDIAVEWESNGQPENNYKTTPPVLDSDGSFFLYSKLTVDKSRWQQGNVFSCSVMHEALHNHYTQESLSLSP chain 2: not shown
110 nM,860 nM,3.1 nM,IL6R-BP259/IL6R-L (antibody) chain 1: QVQLQESGPGLVKPSETLSLTCAVSGHSISHDHAWSWVRQPPGEGLEWIGFISYSGITNYNPSLQGRVTISRDNSKNTLYLQMNSLRAEDTAVYYCARSLARTTAMDYWGEGTLVTVSSASTKGPDVFPLAPSSKSTSGGTAALGCLVKDYFPEPVTVSWNSGALTSGVHTFPAVLQSSGLYSLSSVVTVPSSSLGTQTYICNVNHKPSNTKVDKKVEPKSCDKTHTCPPCPAPDLLGDDSVFLFPPKPKDTLMISRTPEVTCVVVDVSDEDGEVKFNWYVDGVEVHNAKTKPREEQDNSTYRVVSVLTVLHQDWLNGKEYKCKVSNKALPRPIEKTISKAKGQPREPQVYTLPPSRDELTKNQVSLTCLVKGFYPSDIAVEWESNGQPENNYKTTPPVLDSDGSFFLYSKLTVDKSRWQQGNVFSCSVMHEALHNHYTQESLSLSP chain 2: not shown

# The remaining lines, values behind:
Binder,Kd (FcgRIIb),Kd (FcgRIIaR),Kd (FcgRIa)
IL6R-BP257/IL6R-L (antibody) chain 1: QVQLQESGPGLVKPSETLSLTCAVSGHSISHDHAWSWVRQPPGEGLEWIGFISYSGITNYNPSLQGRVTISRDNSKNTLYLQMNSLRAEDTAVYYCARSLARTTAMDYWGEGTLVTVSSASTKGPEVFPLAPSSKSTSGGTAALGCLVKDYFPEPVTVSWNSGALTSGVHTFPAVLQSSGLYSLSSVVTVPSSSLGTQTYICNVNHKPSNTKVDKKVEPKSCDKTHTCPPCPAPDLLGDDSVFLFPPKPKDTLMISRTPEVTCVVVDVSDEDGEVKFNWYVDGVEVHNAKTKPREEQYNSTYRVVSVLTVLHQDWLNGKEYKCKVSNKALPRPIEKTISKAKGQPREPQVYTLPPSRDELTKNQVSLTCLVKGFYPSDIAVEWESNGQPENNYKTTPPVLDSDGSFFLYSKLTVDKSRWQQGNVFSCSVMHEALHNHYTQESLSLSP chain 2: not shown,430 nM,1300 nM,0.31 nM
IL6R-BP208/IL6R-L (antibody) chain 1: QVQLQESGPGLVKPSETLSLTCAVSGHSISHDHAWSWVRQPPGEGLEWIGFISYSGITNYNPSLQGRVTISRDNSKNTLYLQMNSLRAEDTAVYYCARSLARTTAMDYWGEGTLVTVSSASTKGPSVFPLAPSSKSTSGGTAALGCLVKDYFPEPVTVSWNSGALTSGVHTFPAVLQSSGLYSLSSVVTVPSSSLGTQTYICNVNHKPSNTKVDKKVEPKSCDKTHTCPPCPAPDLLGDDSVFLFPPKPKDTLMISRTPEVTCVVVDVSDEDGEVKFNWYVDGVEVHNAKTKPREEQYNSTYRVVSVLTVLHQDWLNGKEYKCKVSNKALPRPIEKTISKAKGQPREPQVYTLPPSRDELTKNQVSLTCLVKGFYPSDIAVEWESNGQPENNYKTTPPVLDSDGSFFLYSKLTVDKSRWQQGNVFSCSVMHEALHNHYTQESLSLSP chain 2: not shown,–,850 nM,–
IL6R-BP256/IL6R-L (antibody) chain 1: QVQLQESGPGLVKPSETLSLTCAVSGHSISHDHAWSWVRQPPGEGLEWIGFISYSGITNYNPSLQGRVTISRDNSKNTLYLQMNSLRAEDTAVYYCARSLARTTAMDYWGEGTLVTVSSASTKGPDVFPLAPSSKSTSGGTAALGCLVKDYFPEPVTVSWNSGALTSGVHTFPAVLQSSGLYSLSSVVTVPSSSLGTQTYICNVNHKPSNTKVDKKVEPKSCDKTHTCPPCPAPDLLGDDSVFLFPPKPKDTLMISRTPEVTCVVVDVSDEDGEVKFNWYVDGVEVHNAKTKPREEQYNSTYRVVSVLTVLHQDWLNGKEYKCKVSNKALPRPIEKTISKAKGQPREPQVYTLPPSRDELTKNQVSLTCLVKGFYPSDIAVEWESNGQPENNYKTTPPVLDSDGSFFLYSKLTVDKSRWQQGNVFSCSVMHEALHNHYTQESLSLSP chain 2: not shown,87 nM,730 nM,2 nM
